Assay results as given in publication PMC6774396 (Frontiers in Immunology, 2019).

Legend:
THP-1 cells = assay: Antibody-mediated clustering (AMC) of L-selectin-GFP/RFP, FLIM/FRET; type: cell-based, human; conditions: for change in FRET efficiency on AMC or versus comparator (in words) / FRET efficiency after AMC: DREG56 plus secondary antibody; for FRET efficiency after AMC: 10 min at 37°C, GFP/RFP pair
Source text: (A) Schematic representation of the cleavage site, transmembrane domain (TMD), and cytoplasmic tail of human L-selectin. Red underlined region of the cleavage site denotes the amino acids that are deleted in ΔM-N L-selectin. […] Red arrow points to the position of the cut site of the L-selectin cleavage domain. (B) Cells expressing matched levels of L-selectin-GFP/RFP in the following forms: WT, ΔM-N, SSAA, ΔM-N^SSAA, and R357A were subjected to AMC using Alexa Fluor 647-conjugated DREG56 or isotype-matched control, followed by goat anti-mouse secondary antibody (see Materials and Methods for more detail). Cells were plated onto poly-L-lysine-coated coverslips and prepared for FLIM/FRET analysis (see materials and methods). FLIM was used to measure the FRET efficiency between the GFP/RFP donor/acceptor pairs as a direct function of cytoplasmic tail clustering […]. At least 45 individual cells were analyzed over 3 independent clustering assays. (C) Representative images are shown for each cell line. The lifetime of fluorescence (Lftm) is expressed in a pseudocolour scale from red (low lifetime with a very high probability of interaction) to blue (high lifetime with a very low probability of interaction). […] Cells were lysed directly in protein loading buffer (containing the reducing agent, dithiothreitol) and resolved onto standard (lower panel) or phos-tag (upper panel) polyacrylamide gels. Antibodies to GFP and RFP were used to, respectively, probe ΔM-N and ΔM-N^SSAA on Western blots. […] Statistics: One-Way ANOVA Tukey's multiple comparison test. **p ≤ 0.01; ***p ≤ 0.001; ****p ≤ 0.0001.
THP-1 cells were adjusted the night before AMC to a density of 0.5 ×10^6 cells per mL. On the same day, 13 mm diameter glass coverslips (thickness “1”) were placed into the base of a 24 well dish, spotted with 100 μL of poly-L-lysine (PLL) to immobilize according to manufacturer's instruction. On the day of the assay, THP-1 cells were counted and adjusted to a density of 1 ×10^6 per mL in 500 μL containing antibody labeling buffer (RPMI culture medium containing FcR block [Miltenyi Biotec]). Cells were labeled with 2 μg per mL DREG56 for 30 min at 4°C, followed by washing (by centrifugation at 300 g and resuspension) in ice cold culture media to remove excess unbound antibody and then incubated back in ice cold labeling buffer containing secondary antibody conjugated to Alexa Fluor […] (Thermo Fisher) for a further 30 min at 4°C. Cells were then washed twice in ice cold neat RPMI and resuspended to 100 μL of neat ice cold RPMI before 80 μL of the cell suspension was seeded onto 13 mm diameter glass coverslips (thickness = “1”), which were pre-coated with PLL-coated the night before. The seeded cells were placed into a humidified cell culture incubator at 37°C and 5% CO2 for 10 min to drive clustering. Adhered cells were flooded in excess 4% paraformaldehyde and fixed for 15 min at room temperature. Fixed coverslips were washed 3 times in PBS and then treated in 10 mg/mL of Sodium Borohydride dissolved in phosphate buffered saline for 10 min at room temperature (to eliminate autofluorescence and enhance signal to noise ratios). Coverslips were subsequently washed in PBS to remove sodium borohydride and mounted using DAKO mounting medium.
FLIM measurement of FRET was performed with a multiphoton microscope system as described previously ([8], [23]). A Nikon TE2000E inverted microscope, combined with an in-house scanner and Chameleon Ti:Sapphire ultrafast pulsed multiphoton laser (Coherent Inc.), was used for excitation of GFP (at 890 nm). Fluorescence lifetime imaging capability was provided by time-correlated, single-photon counting electronics (SPC 700; Becker & Hickl). A 40 × objective (NA 1.3) was used throughout (CFI60 Plan Fluor; Nikon), and data were acquired at 500 ± 20 nm through a bandpass filter (35–5040; Coherent Inc.). […]

[1] = system: THP-1 cells over TNF-α-activated HUVEC; assay: Pseudopod protrusion scoring in TEM under flow; type: cell-based, human; conditions: for cells with 2 protrusions / cells with 0 protrusions: 15 min time point, mean of 3 fields of view per flow experiment, three occasions, at least 180 cells per group, % printed; for cells with 2 protrusions: significance ** S367A p ≤ 0.01 (Tukey); for cells with 0 protrusions: significance *** S367A p ≤ 0.001, ** SSAA p ≤ 0.01 (Tukey)
Method: (A) The number of protrusions formed over this period was scored as: zero, one, two, or >2. (B) The percentages of cells bearing these protrusions were scored at specific time points: 6 min (blue bars), 15 min (green bars), or 25 min (red bars). Supplementary Videos 2, 3, 4 provide examples of cells producing a range of protrusions as TEM proceeds. Data represent SEM of 3 fields of view per flow experiment, conducted on three separate occasions, and at least 180 cells analyzed per group. Values of the vertical lines indicate the differences in protrusion number (specifically “zero” and “two”) corresponding to each of the cell lines, for which statistical significance is shown in Table 1.
All flow experiments were performed using a 35 mm diameter Glycotech parallel plate flow chamber. Perfusion experiments were performed at 1.5 dyn/cm^2 using a Harvard Apparatus 2000 PHD syringe pump. Perfusion media consisted of: RPMI supplemented with L-glutamine, 10% FCS, 1% penicillin/streptomycin, 50 μM β-mercaptoethanol, and 25 mM HEPES. Human Umbilical Vein Endothelial Cells (HUVEC–Lonza) were seeded onto 35 mm diameter glass coverslips (no. 1 thickness; VWR) that were pre-coated with 10 μg/mL fibronectin (37°C for at least 1 h). Before each perfusion assay, HUVEC were stimulated overnight (16 h) with 10 ng/mL carrier-free recombinant human TNF-α (R&D Systems). Each perfusion assay was performed by injecting a bolus of cells for 6 min, followed by just perfusion media (without cells) for the […]. THP-1 cells were perfused at a density of 0.5 ×10^6 cells per mL. THP-1 cells treated with 10 μM TAPI-0 required a preincubation time of 10 min at 37°C before perfusion over TNF-α-activated HUVEC. Note that 10 μM TAPI-0 was also supplemented in the perfusate. Stills were acquired once every 10 seconds using 10 × objective lens.

[2] = at least 45 cells, 3 independent assays

B1: WT: wild-type human L-selectin, C-terminally tagged with GFP or RFP, expressed in THP-1 cells (protein)
chain: WTYHYSEKPMNWQRARRFCRDNYTDLVAIQNKAEIEYLEKTLPFSRSYYWIGIRKIGGIWTWVGTNKSLTEEAENWGDGEPNNKKNKEDCVEIYIKRNKDAGKWNDDACHKLKAALCYTASCQPWSCSGHGECVEIINNYTCNCDVGYYGPQCQFVIQCEPLEAPELGTMDCTHPLGNFSFSSQCAFSCSEGTNLTGIEETTCGPFGNWSSPEPTCQVIQCEPLSAPDLGIMNCSHPLASFSFTSACTFICSEGTELIGKKKTICESSGIWSNPSPICQKLDKSFSMIKEGDYNPLFIPVAVMVTAFSGLAFIIWLARRLKKGKKSKRSMNDPY
modifications: left off: eGFP (donor copy) or mCherry (acceptor copy, called RFP), C-terminal, kept
- change in FRET efficiency on AMC or versus comparator (in words) (THP-1 cells): significantly increased the FRET efficiency
- FRET efficiency after AMC (THP-1 cells; [2]): 12.39%
- FRET efficiency without AMC (THP-1 cells; WT L-selectin-GFP/RFP before AMC (isotype-matched control), at least 45 cells, 3 independent assays): 1.35%
- cells with 2 protrusions [1]: 36.2%
- cells with 0 protrusions [1]: 7.9%

B2: SSAA: L-selectin with Ser^364 and Ser^367 both mutated to alanines (protein)
chain: WTYHYSEKPMNWQRARRFCRDNYTDLVAIQNKAEIEYLEKTLPFSRSYYWIGIRKIGGIWTWVGTNKSLTEEAENWGDGEPNNKKNKEDCVEIYIKRNKDAGKWNDDACHKLKAALCYTASCQPWSCSGHGECVEIINNYTCNCDVGYYGPQCQFVIQCEPLEAPELGTMDCTHPLGNFSFSSQCAFSCSEGTNLTGIEETTCGPFGNWSSPEPTCQVIQCEPLSAPDLGIMNCSHPLASFSFTSACTFICSEGTELIGKKKTICESSGIWSNPSPICQKLDKSFSMIKEGDYNPLFIPVAVMVTAFSGLAFIIWLARRLKKGKKAKRAMNDPY
modifications: left off: eGFP (donor copy) or mCherry (acceptor copy, called RFP), C-terminal, kept
- change in FRET efficiency on AMC or versus comparator (in words) (THP-1 cells): modest but significant drop in FRET efficiency compared to WT L-selectin
- FRET efficiency after AMC (THP-1 cells; [2]): 9.25%
- protrusive activity profile in TEM (in words) ([1]; 6, 15 and 25 min of flow over TNF-α-activated HUVEC): phenocopied more the S367A than the S364A cell line
- cells with 2 protrusions [1]: 24.9%
- cells with 0 protrusions [1]: 22.4^** %
